3 molecules from patent US20140366219A1, “Increasing Soybean Defense Against Pests” (priority 2011, published 2014) can be followed below.

The test system of one series is SCN race 2. Nature of the series: Nematode infection and demographics assay in transgenic soybean hairy roots. In kind it is in vivo, Heterodera glycines. To be noted: for reduction of susceptibility: susceptibility of vector control in susceptible background set at 100%; for (J3+J4)/total SCN ratio: overexpressing transgenic hairy roots, two weeks after inoculation. From the text:
The soybean hairy root transformation system by infection with A. rhizogenes harboring the target genes were modified and used to study soybean resistance against SCN. A. rhizogenes K599 harboring the target gene, vector control and A. rhizogenes K599 alone were used to inoculate the TN02-275 soybeans, which are susceptible to SCN race 2. To better evaluate the resistance of the target gene, A. rhizogenes harboring the vector control and A. rhizogenes K599 alone were also used to inoculate the TN02-226 soybeans, which are resistant to SCN race 2. Generation of soybean hairy roots was modified as follows: First, soybean seeds were sterilized with chlorine gas. Second, a single layer of mature soybean seeds with intact seed coats were placed in open Petri dish, which was put in a bell jar desiccator within a fume hood. A beaker with 100 ml bleach was also placed in the desiccator and added 5 ml concentrated (12N) HCl along the side of the beaker. Then the seeds were kept in the closed desiccator immediately and maintained in the chlorine gas atmosphere overnight (about 16 h). After sterilization, seeds were transferred to the autoclaved filter paper moistened with sterilized distilled water in the Petri dishes for germination in a laminar flow hood. The germinated soybean seeds were sowed in sterilized vermiculite and six seeds were grown in each cell of 18-cell germination tray. The overnight cultured bacteria lawn of A. rhizogenes K599 with binary vector pJL-OFP, pJL-OFP-35S::GUS or pJL-OFP-35S::GmSAMT1 from LB medium plate containing […] kanamycin, or a culture of A. rhizogenes K599 lacking the binary vector grown in LB medium without any antibiotics was collected and suspended in 1 ml of sterile distilled water, respectively. Soybean cotyledonary nodes and upper hypocotyls of 5-day-old seedlings with unfolded cotyledons were stabbed three times by the syringe containing the bacterial suspension. In the first week, the trays were covered with the sterile transparent lids to retain high humidity. In the subsequent three weeks, plants were transferred into pots and the A. rhizogenes wounding sites were covered by wet sterile vermiculite to continually keep high humidity. Each day soybean plants were watered using sterile B&D solution containing 1 mM CaCl2, 0.5 mM KH2PO4, 10 μM Fe-citrate, 0.25 mM MgSO4, 0.25 mM K2SO4, 1 μM MnSO4, 2 μM H3BO4, 0.5 μM ZnSO4, 2 μM CuSO4, 0.1 μM CoSO4, 0.1 μM Na2MoO4, and 1 mM KNO3. The growth conditions for soybean plants were 12 h light/12 h dark at 28° C./25° C. with irradiance from fluorescent bulbs at 150-200 μmol m^−2·s^−1. After about four weeks, the hairy roots grew to approximately 10 cm in length. Soybean transgenic roots were detected based on OFP expression, using a fluorescence stereomicroscope (Olympus SZX12 fluorescence microscope and OFP filter). The tap root and non-transgenic roots were excised under the wounding site. Transgenic roots harboring pJL-OFP-35S::GUS screened by OFP signal were immersed in GUS solution (1 mM X-Gluc), 0.5 mM potassium ferrocyanide, 0.1% (v/v) TRITON™ X-100, 100 mM sodium phosphate buffer pH 7.0), and incubated at 37° C. overnight. In the following day, the X-Gluc solution was discarded. The roots were washed repeatedly with 70% ethanol to remove chlorophyll. Transgenic roots with visual GUS stain were recorded.
To easily compare the SCN infection, one transgenic root was left for the SCN inoculation. […]

The subject of another series is GmICS2 (Glyma03g17420). Nature of the series: qRT-PCR of GmICS2 in transgenic hairy roots. Also noted: species or system soybean. To be noted: Williams 82 transgenic hairy roots, without SCN treatment. Background: Quantitative PCR measures a nucleic acid by following its amplification.
The subject of another series is GmICS1 (Glyma01g25690). Nature of the series: qRT-PCR of GmICS1 in transgenic hairy roots. Also on record: species or system soybean. The note with it: Williams 82 transgenic hairy roots, without SCN treatment.
Substrate in series [1]: COC(=O)c1ccccc1O
Nature of the series: Two-step radiochemical methyl ester esterase assay, kinetic parameters of GmSABP2-1. In kind it is biochemical, soybean. To be noted: other: MeSA 5 μM to 100 μM, Lineweaver-Burk; 25.0 °C. On the procedure:
A two-step radiochemical esterase assay was performed to determine the activity of E. coli-expressed Glyma16g26060 following a protocol previously reported by (Forouhar et al., Proc. Natl. Acad. Sci. USA 102: 1773-1778, 2005). The reaction of the first step was the reaction of substrate 10 μM MeSA and purified recombinant E. coli-expressed Glyma16g26060 for 30 min at 25° C. After that, the sample was boiled to stop the reaction and denature the enzyme. The second reaction step was started with the addition of 3 μM ^14C labeled S-adenosyl-L-methionine (SAM) with a specific activity of 51.4 mCi/mmol (Perkin Elmer, Boston, Mass., USA), and respective known purified methyltransferase with high activity. Here, GmSAMT1 mentioned previously was used for SA methyltransferase enzyme. The reaction was preceded for 30 min at 25° C. Then radiolabeled products were extracted and the radioactivity was counted using a liquid scintillation counter.
Appropriate enzyme concentrations and incubation time were determined in time-course assays so that the reaction velocity was linear during the assay period. To determine the Km for MeSA, the concentrations of MeSA were independently varied in the range from 5 μM to 100 μM. Lineweaver-Burk plots were made to obtain apparent Km value. Optimal pH for GmSABP2-1 was assayed from pH 6.0 to pH 9.0. Final values are an average of three independent measurements.

Substrate in series [2]: O=C(O)c1ccccc1O
Nature of the series: Determination of kinetic parameters of GmSAMT1 (Lineweaver-Burk). In kind it is biochemical, soybean. The note with it: other: SA varied 2 to 150 μM, SAM 200 μM, 25° C., 30 min. As for the experimental part:
A 50 μl volume containing 50 mM Tris-HCl, pH 7.5, 1 mM SA, and 3 μM ^14C-SAM with a specific activity of 51.4 mCi/mmol (Perkin-Elmer, Boston, Mass.) was used. The assay was initiated by addition of SAM, maintained at 25° C. for 30 min, and stopped by the addition of ethyl acetate (150 μl). After phase separation by 1 min centrifugation at 14,000 g, the upper organic phase was counted using a liquid scintillation counter (Beckman Coulter, Fullerton, Calif.). The radiation counts in the organic phase indicated the amount of synthesized MeSA. Substrate specificity assay was also performed for recombinant GmSAMT1, with a range of substrates including SA, benzoic acid, anthranilic acid, 3-hydroxybenzoic acid, 4-hydroxybenzoic acid, nicotinic acid, p-coumaric acid, caffeic acid, cinnamic acid, vanallic acid, jasmonic acid (JA), gibberellic acid, indole-3-acetic acid, and 2,4-dichlorophenoxyacetic acid. The activity with SA was set at 100%. Three independent assays were performed for each compound.
Appropriate enzyme concentrations and incubation time were determined in time course assays to make sure that the reaction velocity was linear during the assay period. Lineweaver-Burk plots yielded apparent Km values. To determine the Km for SA, concentrations of SA were independently varied from 2 to 150 μM, while SAM was held constant at 200 μM. […]

Values joined by “and” are separate entries in the source; they are usually repeats but may differ in a detail not shown here. Equal entries are not always repeated.

B1: GmSAMT1: soybean salicylic acid methyltransferase gene (SEQ ID NO: 1), over-expressed in transgenic hairy roots via pJL-OFP-35S::GmSAMT1 (nucleic acid)
DNA: ATGGAAGTAGCACAGGTACTCCACATGAACGGTGGCGTTGGAGACGCAAGCTATGCAAACAACTCCCTTGTTCAGCAAAAGGTGATTTGTTTGACAAAGCCCATAAGAGAGGAAGCCATAAGAAGCCTCTATTGCAGCACACACCCCAGAAGCTTGGCAATTGCAGATTTGGGTTGCTCTTCTGGACCAAACACTTTATTTGTTGTGTCTGAATTCATAAAAATTGTGGAGAAGCTTTGCCGAGAGCTGAACCACAAATCTCCAGAATACAAAGTCTTTCTGAATGATCTCCCTGGGAATGACTTCAACAACATCTTCAAGTCTCTTGACAGCGTCAAAGAGAAATTGTGTGATGAAATGGAAAGTGGGATCGGTCCATGCTACTTCTCGGGTGTTCCCGGTTCTTTCTATGGAAGGGTTTTCCCATATCAAAGTCTTCATTTTGTCCATTCCTCATACAGCCTTCAATGGCTATCTAAGGTTCCTGAGGGTGTAGACAACAACAAGGGCAATGTTTACATAGGCAGTACGAGCCCCAAAAATGTTGTGAGAGCTTACTATGAGCAATTTCAGAGAGATTTCTCTCTTTTTCTCAAGTGTCGTGCAGAGGAATTGGTTGAAGGAGGACGCATGGTTCTCACATTTTTGGGAAGAAGAAGCGATGATCCATCTAGCAAGGATGGTTGCTACATTTGGGAGCTTTTGGCTACTGCTCTTAGTGATATGGTCTTGCAGGGAATCATAAGAGAAGAGCAATTAGATACTTTTAACATCCCTCAATACACTCCATCCCCATCTGAAGTGAAATTGGAAGTTCTTAAAGAAGGATCATTCGCCATCAATCGTCTAGAGGTTTCTGAGGTGAATTGGAATGCTCTCGATGAGTGGAATGCTCTAGACTTTGAATCTGAAAGGTCTGAATCACTTAGTGATGGTGAATACAATGTGGCACAGTGCATGAGGGCTGTGGCAGAACCTATGCTGATTAGCCACTTTGGTGAAGCTATCATTGAAGAGGTTTTTTGCCGCTACCAGCAAATCTTGGCTGAACGTATGTCCAAGGAGAAAACCAAGTTCATCAATGTTACCATATTATTGACTAGAAAAGCATAA
modifications: Glycine Max
In the case of B1, the reduction of susceptibility was found to be 85.6% in the series on SCN race 2 (TN02-275 background) and 71.2% with SCN race 2 (Williams 82 background). Besides, the “(J3+J4)/total SCN ratio” value in the series with SCN race 2 (TN02-275 background) is on record as 3.4%; with SCN race 2 (Williams 82 background), 5.3%. Besides, in the series on GmICS2 (Glyma03g17420), the “GmICS2 transcript abundance relative to controls” value came to 8.2 times. Besides, in the series with GmICS1 (Glyma01g25690), the “GmICS1 transcript abundance relative to controls” value is 5.3 times.

B2: GmSABP2-1 (Glycine max) (protein)
chain: MGSQNCMDRKHYVLVHGACHGAWCWYKLKPRLESAGHKVTVLDLAASGTNMKKIEDVDTFSEYSAPLLQLMATIPSNEKLVLVGHSLGGLNIALAMEKFPEKVAVGVFLTAFAPDTEHHPSYVLEKYNERTPLAAWLDTEFAPSGNKTSMFFGPNFLSDKLYQLSPIEDLELAKTLARPSSLFMEDLTKQKNFSKEGYGSVPRAFIVCTEDLGIPLEYQLLMIQNVGFNDVVEVKDADHMVMLCKPQELFDSLQQIATKYA
The Km is the concentration of substrate that gives half-maximal velocity. For the molecule B2, the Km in series [1] is 46.2 ± 2.2 µM.

B3: GmSAMT1 (Glycine max) (protein)
chain: MEVAQVLHMNGGVGDASYANNSLVQQKVICLTKPIREEAIRSLYCSTHPRSLAIADLGCSSGPNTLFVVSEFIKIVEKLCRELNHKSPEYKVFLNDLPGNDFNNIFKSLDSVKEKLCDEMESGIGPCYFSGVPGSFYGRVFPYQSLHFVHSSYSLQWLSKVPEGVDNNKGNVYIGSTSPKNVVRAYYEQFQRDFSLFLKCRAEELVEGGRMVLTFLGRRSDDPSSKDGCYIWELLATALSDMVLQGIIREEQLDTFNIPQYTPSPSEVKLEVLKEGSFAINRLEVSEVNWNALDEWNALDFESERSESLSDGEYNVAQCMRAVAEPMLISHFGEAIIEEVFCRYQQILAERMSKEKTKFINVTILLTRKA
For B3, in series [2], the Km is 32.9 ± 1.7 µM and 46.2 ± 4.2 µM.
